Results published in patent publication US11434503.

System: piggyBac transposase wild type (Trichoplusia ni)
Assay: cell_activity
Conditions: yeast excision assay; reference

piggyBac transposase wild type (Trichoplusia ni), sequence (chain, as listed by the source): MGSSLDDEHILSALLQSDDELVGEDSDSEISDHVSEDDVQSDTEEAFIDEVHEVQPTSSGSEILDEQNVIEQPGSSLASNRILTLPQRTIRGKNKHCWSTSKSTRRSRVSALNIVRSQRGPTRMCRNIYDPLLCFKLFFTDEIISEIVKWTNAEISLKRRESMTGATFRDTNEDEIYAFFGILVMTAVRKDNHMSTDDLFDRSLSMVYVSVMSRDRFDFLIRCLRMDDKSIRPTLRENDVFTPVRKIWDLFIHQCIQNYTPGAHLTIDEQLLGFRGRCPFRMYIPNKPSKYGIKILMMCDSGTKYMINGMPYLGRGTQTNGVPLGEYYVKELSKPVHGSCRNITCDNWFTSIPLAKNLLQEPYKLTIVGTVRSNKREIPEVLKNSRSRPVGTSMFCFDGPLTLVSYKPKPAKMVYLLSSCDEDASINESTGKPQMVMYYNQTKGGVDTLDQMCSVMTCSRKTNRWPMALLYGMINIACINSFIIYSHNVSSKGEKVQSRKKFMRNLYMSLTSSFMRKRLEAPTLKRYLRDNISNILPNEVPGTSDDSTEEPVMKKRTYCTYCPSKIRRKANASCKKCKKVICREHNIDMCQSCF

Work on “piggyBac transposon ura- to ura+ excision cassette in yeast” yielded an activity (fold (normalized)) of 1.
